In IntAct's records for PubMed 15448699:

B1: Protein SIC1 (Saccharomyces cerevisiae), P38634 (parent)
chain: MTPSTPPRSRGTRYLAQPSGNTSSSALMQGQKTPQKPSQNLVPVTPSTTKSFKNAPLLAPPNSNMGMTSPFNGLTSPQRSPFPKSSVKRTLFQFESHDNGTVREEQEPLGRVNRILFPTQQNVDIDAAEEEEEGEVLLPPSRPTSARQLHLSLERDEFDQTHRKKIIKDVPGTPSDKVITFELAKNWNNNSPKNDARSQESEDEEDIIINPVRVGKNPFASDELVTQEIRNERKRAMLRENPDIEDVITYVNKKGEVVEKRRLTDEEKRRFKPKALFQSRDQEH
partner: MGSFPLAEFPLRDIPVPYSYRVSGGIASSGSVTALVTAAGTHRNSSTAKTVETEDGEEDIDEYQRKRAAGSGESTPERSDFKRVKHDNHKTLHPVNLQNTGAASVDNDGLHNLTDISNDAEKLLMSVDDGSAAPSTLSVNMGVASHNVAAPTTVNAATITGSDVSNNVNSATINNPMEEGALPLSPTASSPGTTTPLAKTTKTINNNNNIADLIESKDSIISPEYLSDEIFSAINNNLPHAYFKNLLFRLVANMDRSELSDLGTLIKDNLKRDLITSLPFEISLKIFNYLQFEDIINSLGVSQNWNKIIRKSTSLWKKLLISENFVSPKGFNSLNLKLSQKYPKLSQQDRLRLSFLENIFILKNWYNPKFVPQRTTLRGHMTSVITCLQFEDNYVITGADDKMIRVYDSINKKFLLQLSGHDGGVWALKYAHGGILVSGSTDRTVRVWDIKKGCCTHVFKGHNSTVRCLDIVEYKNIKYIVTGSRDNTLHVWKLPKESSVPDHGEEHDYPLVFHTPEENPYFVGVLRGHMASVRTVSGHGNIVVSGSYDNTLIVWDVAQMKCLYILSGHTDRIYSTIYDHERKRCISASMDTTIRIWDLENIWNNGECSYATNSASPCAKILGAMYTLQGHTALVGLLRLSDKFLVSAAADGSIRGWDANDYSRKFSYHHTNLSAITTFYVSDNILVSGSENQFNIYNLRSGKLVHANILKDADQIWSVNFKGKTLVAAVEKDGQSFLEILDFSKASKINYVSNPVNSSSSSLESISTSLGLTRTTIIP
B2: Protein SIC1 (Saccharomyces cerevisiae), P38634 (parent)
chain: B1 chain
partner: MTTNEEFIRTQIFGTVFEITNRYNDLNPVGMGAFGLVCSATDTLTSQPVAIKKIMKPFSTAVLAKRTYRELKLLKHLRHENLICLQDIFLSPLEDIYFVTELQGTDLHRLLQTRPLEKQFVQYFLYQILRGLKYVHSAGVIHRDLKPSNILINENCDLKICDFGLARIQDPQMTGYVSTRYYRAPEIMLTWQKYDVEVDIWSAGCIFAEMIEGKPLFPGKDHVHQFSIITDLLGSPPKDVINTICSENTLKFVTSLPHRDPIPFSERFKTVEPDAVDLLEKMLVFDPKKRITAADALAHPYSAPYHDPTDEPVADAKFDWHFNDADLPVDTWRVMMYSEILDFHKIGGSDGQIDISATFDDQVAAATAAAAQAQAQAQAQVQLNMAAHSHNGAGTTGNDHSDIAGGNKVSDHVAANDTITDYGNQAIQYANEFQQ

Variants of: B1
Details: with cdc4_yeast CDC4, P07834

effect of a mutation on the interaction | Variant
decreasing interaction | T173E

Variants of: B2
Details: with hog1_yeast HOG1, P32485

effect of a mutation on the interaction | Variant
disrupting interaction | T173E
